Laboratory results reported in the supplement of paper PMC5998384.

Experiments:
HeLa Kyoto [1] = assay: solubility change mitosis vs G1/S (difference of NP-40 vs SDS log2 ratios) (log2 ratio difference); higher = more soluble in mitosis
HeLa Kyoto [2] = assay: thermal stability score vs G1/S (z-score of summed log2 fold changes over temperatures); higher = more thermally stable than in G1/S
HeLa Kyoto [3] = assay: solubility in G1/S (NP-40 vs SDS abundance) (log2 ratio); higher = more soluble; conditions: cell cycle stage: G1/S
HeLa Kyoto [4] = assay: melting temperature (median over replicates), in situ; higher = more thermally stable
[5] = cell cycle stage: early G1 (4.5 h after nocodazole release)
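For melting temperature (median over replicates), in situ in this document: HeLa Kyoto cells synchronized by double thymidine or nocodazole block, proteins quantified by TMT10plex mass spectrometry, three independent biological replicates.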
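For solubility change mitosis vs G1/S (difference of NP-40 vs SDS log2 ratios) in this document: synchronized HeLa Kyoto cells (double thymidine block for G1/S, nocodazole release for mitosis), protein amounts in NP-40 versus SDS lysates quantified by mass spectrometry, three biological replicates.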
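For solubility in G1/S (NP-40 vs SDS abundance) in this document: HeLa Kyoto cells arrested at G1/S by double thymidine block, proteins quantified by TMT10plex mass spectrometry in mild NP-40 versus SDS extracts, three biological replicates.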
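For thermal stability score vs G1/S (z-score of summed log2 fold changes over temperatures) in this document: synchronized HeLa Kyoto cells, proteins quantified by TMT10plex mass spectrometry, three biological replicates, mitosis taken 0.5 h after nocodazole release, G1/S directly after double thymidine block.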

Sequence	solubility change mitosis (log2) (HeLa Kyoto [1])	thermal stability score (HeLa Kyoto [2]; [5])	thermal stability score (HeLa Kyoto [2]; cell cycle stage: mitosis)	solubility in G1/S (log2) (HeLa Kyoto [3])	melting temperature (HeLa Kyoto [4]; cell cycle stage: mitosis)	melting temperature (HeLa Kyoto [4]; cell cycle stage: G1/S)
MDRSSKRRQVKPLAASLLEALDYDSSDDSDFKVGDASDSEGSGNGSEDASKDSGEGSCSDSEENILEEELNEDIKVKEEQLKNSAEEEVLSSEKQLIKMEKKEEEENGERPRKKKEKEKEKEKEKEKEKEREKEKEKATVSENVAASAAATTPATSPPAVNTSPSVPTTTTATEEQVSEPKKWNLRRNRPLLDFVSMEELNDMDDYDSEDDNDWRPTVVKRKGRSASQKEGSDGDNEDDEDEGSGSDEDENDEGNDEDHSSPASEGGCKKKKSKVLSRNSADDEELTNDSLTLSQSKSNEDSLILEKSQNWSSQKMDHILICCVCLGDNSEDADEIIQCDNCGITVHEGCYGVDGESDSIMSSASENSTEPWFCDACKCGVSPSCELCPNQDGIFKETDAGRWVHIVCALYVPGVAFGDIDKLRPVTLTEMNYSKYGAKECSFCEDPRFARTGVCISCDAGMCRAYFHVTCAQKEGLLSEAAAEEDIADPFFAYCKQHADRLDRKWKRKNYLALQSYCKMSLQEREKQLSPEAQARINARLQQYRAKAELARSTRPQAWVPREKLPRPLTSSASAIRKLMRKAELMGISTDIFPVDNSDTSSSVDGRRKHKQPALTADFVNYYFERNMRMIQIQENMAEQKNIKDKLENEQEKLHVEYNKLCESLEELQNLNGKLRSEGQGIWALLGRITGQKLNIPAILRAPKERKPSKKEGGTQKTSTLPAVLYSCGICKKNHDQHLLLLCDTCKLHYHLGCLDPPLTRMPRKTKNSYWQCSECDQAGSSDMEADMAMETLPDGTKRSRRQIKEPVKFVPQDVPPEPKKIPIRNTRTRGRKRSFVPEEEKHEERVPRERRQRQSVLQKKPKAEDLRTECATCKGTGDNENLVRCDECRLCYHFGCLDPPLKKSPKQTGYGWICQECDSSSSKEDENEAERKNISQELNMEQKNPKK [PHF14]	0.708	-0.0393	2.42	-1.13	50.1 °C	
MDNQCTVQVRLELGHRAQLRKKPTTEGFTHDWMVFVRGPEQCDIQHFVEKVVFWLHDSFPKPRRVCKEPPYKVEESGYAGFIMPIEVHFKNKEEPRKVCFTYDLFLNLEGNPPVNHLRCEKLTFNNPTTEFRYKLLRAGGVMVMPEGADTVSRPSPDYPMLPTIPLSAFSDPKKTKPSHGSKDANKESSKTSKPHKVTKEHRERPRKDSESKSSSKELEREQAKSSKDTSRKLGEGRLPKEEKAPPPKAAFKEPKMALKETKLESTSPKGGPPPPPPPPPRASSKRPATADSPKPSAKKQKKSSSKGSRSAPGTSPRTSSSSSFSDKKPAKDKSSTRGEKVKAESEPREAKKALEVEESNSEDEASFKSESAQSSPSNSSSSSDSSSDSDFEPSQNHSQGPLRSMVEDLQSEESDEDDSSSGEEAAGKTNPGRDSRLSFSDSESDNSADSSLPSREPPPPQKPPPPNSKVSGRRSPESCSKPEKILKKGTYDKAYTDELVELHRRLMALRERNVLQQIVNLIEETGHFNVTNTTFDFDLFSLDETTVRKLQSCLEAVAT [MLLT1]	0.264	-0.27	0.333	-0.205	53 °C	50.5 °C
MSGFLEELLGEKLVTGGGEEVDVHSLGARGISLLGLYFGCSLSAPCAQLSASLAAFYGRLRGDAAAGPGPGAGAGAAAEPEPRRRLEIVFVSSDQDQRQWQDFVRDMPWLALPYKEKHRKLKLWNKYRISNIPSLIFLDATTGKVVCRNGLLVIRDDPEGLEFPWGPKPFREVIAGPLLRNNGQSLESSSLEGSHVGVYFSAHWCPPCRSLTRVLVESYRKIKEAGQNFEIIFVSADRSEESFKQYFSEMPWLAVPYTDEARRSRLNRLYGIQGIPTLIMLDPQGEVITRQGRVEVLNDEDCREFPWHPKPVLELSDSNAAQLNEGPCLVLFVDSEDDGESEAAKQLIQPIAEKIIAKYKAKEEEAPLLFFVAGEDDMTDSLRDYTNLPEAAPLLTILDMSARAKYVMDVEEITPAIVEAFVNDFLAEKLKPEPI [NXN]	-0.204	1.06	1.73	0.175	51 °C	51 °C
MFTSTGSSGLYKAPLSKSLLLVPSALSLLLALLLPHCQKLFVYDLHAVKNDFQIWRLICGRIICLDLKDTFCSSLLIYNFRIFERRYGSRKFASFLLGSWVLSALFDFLLIEAMQYFFGITAASNLPSGFLAPVFALFVPFYCSIPRVQVAQILGPLSITNKTLIYILGLQLFTSGSYIWIVAISGLMSGLCYDSKMFQVHQVLCIPSWMAKFFSWTLEPIFSSSEPTSEARIGMGATLDIQRQQRMELLDRQLMFSQFAQGRRQRQQQGGMINWNRLFPPLRQRQNVNYQGGRQSEPAAPPLEVSEEQVARLMEMGFSRGDALEALRASNNDLNVATNFLLQH [UBAC2]	-0.209	0.579	1.39	-0.173	51.2 °C	50.4 °C
